{"source": "paper PMC4860041", "target": "taxol-stabilized porcine microtubules (tubulin purified from porcine brain) (UniProt P02550)", "sequence (P02550 whole entry, looked up)": "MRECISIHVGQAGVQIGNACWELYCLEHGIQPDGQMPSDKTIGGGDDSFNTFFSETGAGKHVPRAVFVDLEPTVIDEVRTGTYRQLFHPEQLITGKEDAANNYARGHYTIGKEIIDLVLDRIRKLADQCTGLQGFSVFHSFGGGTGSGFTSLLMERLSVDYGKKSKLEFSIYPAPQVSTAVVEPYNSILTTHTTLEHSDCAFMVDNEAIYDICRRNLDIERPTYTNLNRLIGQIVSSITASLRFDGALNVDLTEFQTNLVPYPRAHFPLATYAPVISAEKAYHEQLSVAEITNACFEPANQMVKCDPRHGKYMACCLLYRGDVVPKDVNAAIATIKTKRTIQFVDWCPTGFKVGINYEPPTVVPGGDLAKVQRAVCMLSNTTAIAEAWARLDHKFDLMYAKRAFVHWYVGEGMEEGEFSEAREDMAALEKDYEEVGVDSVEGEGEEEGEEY", "assay": "co-sedimentation"}
{"substance": "recombinant GFP-B>A-MNB kinase (Basic-to-Acidic mutant, KKKRR 118-122 to EEEDD)", "values": [{"measurement": "apparent Km", "value": "a Km of 4.46 ± 2.62 μM (mean ± s.d.)"}]}
{"substance": "recombinant full-length GFP-MNB kinase (Drosophila Minibrain, isoform E)", "values": [{"measurement": "apparent Km", "value": "a Km of 0.96 ± 0.10 μM (mean ± s.d.)"}]}
